# Reference: patent publication US20110300229A1, “TREATING OR PREVENTING ROTAVIRUS INFECTION” (FONTERRA CO-OPERATIVE GROUP LIMITED, priority 2007, published 2011)
# Marks after values point to notes of the source that are not given here.
# B1: bovine lactadherin: bovine milk fat globule membrane glycoprotein, cited from Kvistgaard et al, 2004 (protein, UniProt Q95114 19-427, looked up)
# Lactadherin: ASGDFCDSSLCLHGGTCLLNEDRTPPFYCLCPEGFTGLLCNETEHGPCFPNPCHNDAECQVTDDSHRGDVFIQYICKCPLGYVGIHCETTCTSPLGMQTGAIADSQISASSMHLGFMGLQRWAPELARLHQTGIVNAWTSGNYDKNPWIQVNLMRKMWVTGVVTQGASRAGSAEYLKTFKVAYSTDGRQFQFIQVAGRSGDKIFIGNVNNSGLKINLFDTPLETQYVRLVPIICHRGCTLRFELLGCELNGCTEPLGLKDNTIPNKQITASSYYKTWGLSAFSWFPYYARLDNQGKFNAWTAQTNSASEWLQIDLGSQKRVTGIITQGARDFGHIQYVAAYRVAYGDDGVTWTEYKDPGASESKIFPGNMDNNSHKKNIFETPFQARFVRIQPVAWHNRITLRVELLGC
# B2: bovine MUC1 mucin: bovine milk mucin, cited from Kvistgaard et al, 2004 (protein, UniProt Q8WML4 23-580, looked up)
# Mucin-1: NVPTLTTSDSINPRRTTPVSTTQSSPTSSPTKETSWSTTTTLLTASSPAPSPAASPGHDGASTPTSSPAPSPAASPGHDGASTPTSSPAPSPAASPGHDGASTPTSSPAPSPAASPGHDGASTPTSSPAPSPAASPGHNGTSSPTGSPAPSPAASPGHDGASTPTSSPAPSPAASPGHNGTSSPTGSPAPSPAASPGHDGASTPTSSPAPSPAASPGHNGTSSPTGSPAPSPTASPGHDSAPSLTSSPAPSPTASPGQHGASSPTSSDTSSMTTRSMSSSMVTSAHKGTSSRATMTPVSKGTPSSVPSSETAPTAASHITRTAASSPSIALSTSSNPKTSQQLSVRVSLYFLSFRITNLQFNSSLENPQTSYYQELQRSIWGLILQIYKQRDFLGLSEIKFRPGSVVVELTLAFREGTTAEWVKAQFSQLEAHAASYNLTISGVSVYSAPFPSSAQAGSGVPGWGIALLVLVCVLVALAIIYLIALVVCQCGRKKCEQLDVFPTLDAYHPMSEYSTYHTHGRYVPPGSTKRSPYEEVSAGNGGSNLSYTNLAATSANL
# B3: bovine lactoferrin: bovine milk protein, result cited from Kvistgaard et al, 2004 (protein, UniProt P24627 20-708, looked up)
# Lactotransferrin: APRKNVRWCTISQPEWFKCRRWQWRMKKLGAPSITCVRRAFALECIRAIAEKKADAVTLDGGMVFEAGRDPYKLRPVAAEIYGTKESPQTHYYAVAVVKKGSNFQLDQLQGRKSCHTGLGRSAGWIIPMGILRPYLSWTESLEPLQGAVAKFFSASCVPCIDRQAYPNLCQLCKGEGENQCACSSREPYFGYSGAFKCLQDGAGDVAFVKETTVFENLPEKADRDQYELLCLNNSRAPVDAFKECHLAQVPSHAVVARSVDGKEDLIWKLLSKAQEKFGKNKSRSFQLFGSPPGQRDLLFKDSALGFLRIPSKVDSALYLGSRYLTTLKNLRETAEEVKARYTRVVWCAVGPEEQKKCQQWSQQSGQNVTCATASTTDDCIVLVLKGEADALNLDGGYIYTAGKCGLVPVLAENRKSSKHSSLDCVLRPTEGYLAVAVVKKANEGLTWNSLKDKKSCHTAVDRTAGWNIPMGLIVNQTGSCAFDEFFSQSCAPGADPKSRLCALCAGDDQGLDKCVPNSKEKYYGYTGAFRCLAEDVGDVAFVKNDTVWENTNGESTADWAKNLNREDFRLLCLDGTRKPVTEAQSCHLAVAPNHAVVSRSDRAAHVKQVLLHQQALFGKNGKNCPDKFCLFKSETKNLLFNDNTECLAKLGGRPTYEEYLGTEYVTAIANLKKCSTSPLLEACAFLTR
# B4: Lactoferrin: lactoferrin provided by Fonterra Co-operative Group Limited; comparative material (protein, UniProt P24627 20-708, looked up)
# Lactotransferrin: B3 Lactotransferrin
# Tests used:
# [1] = system: human Wa rotavirus; details: cited from earlier work
# [2] = system: human rotavirus strain Wa; assay: Rotavirus infection assay in HT29 cells (crystal violet, % uninfected cells); type: cell-based
# Experimental: The HT29 cell line was used to propagate the human rotavirus strain Wa (neuraminidase resistant) in the presence of 1 μg/ml trypsin in Dulbecco's minimal essential medium (DMEM) supplemented with 10% foetal calf serum and penicillin/streptomycin (100 μg/ml/100 units/ml). Rotavirus was harvested by freeze thawing twice, spun at 750 g to remove cell debris and stored at −80° C. The rotavirus was assayed and found to contain […] plaque forming units (pfu)/ml.
# The infection assay used was based on a number of published assays (Scott et al 1979; Smith et al 1979; Guarino et al 1996; Superb et al 2001). Confluent HT29 cells grown in DMEM (seeded at 3×10^5/ml in 96 well plates) were washed twice in sterile PBS. Doubling dilutions of each of the products to be screened (initial concentration 5 mg/ml) were made in the plate in 50 μl volumes of DMEM. Virus was added (10^4 pfu/well) to all wells except the cells only control and plates were then incubated for two hours in 5% CO2 at 37° C. Other controls included virus plus cells, lipids only, pure GM3 and pure GD3. Following the two-hour incubation trypsin was added to all the wells containing virus at a concentration of 2 μg/ml—this step cleaves VP4 to polypeptides VP8 and VP5 and is needed for the virion to penetrate into the cells' interior. Plates were incubated at 37° C. in 5% CO2 for seven days and were checked daily for cytopathic effect in the virus only control wells. Media was removed and plates washed in sterile PBS, air-dried and fixed with methanol for one minute. Plates were air dried and then stained with 100 μl/well of 1% crystal violet (351884W, BDH, England) for five minutes. Plates were washed four times with sterile water to remove excess stain. 100 μl of acetic acid per well was added to solubilise the stain and absorbance was read at a wavelength of 595 nm in a Biorad ELISA plate reader. Each sample was assayed on a minimum of three separate occasions and the percentage of uninfected cells calculated.
# Statistical analysis was performed using an unpaired Student t test (InStat for MacIntosh) to compare the effect of the lipid products derived from bovine milk with the virus only control at the lowest dilution of the product.
molecule,measurement,setting,value
B1,prevention of human Wa rotavirus infection in vitro,[1],could not prevent
B2,prevention of human Wa rotavirus infection in vitro,[1],could not prevent
B3,prevention of human Wa rotavirus infection in vitro,[1],could not prevent
B4,Percentage of HT29 cells uninfected by rotavirus,[2]; 0.3125 mg/ml,60 +/− 8 ** %
same,Percentage of HT29 cells uninfected by rotavirus,[2]; 0.625 mg/ml,65 +/− 8 *** %
same,Percentage of HT29 cells uninfected by rotavirus,[2]; 1.25 mg/ml,73 +/− 12 *** %
same,Percentage of HT29 cells uninfected by rotavirus,[2]; 2.5 mg/ml,87 +/− 4 *** %
same,Percentage of HT29 cells uninfected by rotavirus,[2]; 5 mg/ml,67 +/− 4 *** %
